Reference: the Immune Epitope Database (IEDB)

What was measured:
HLA-A*01:01 = test: IEDB peptide-MHC binding, purified MHC/direct/fluorescence; filed as Kd, often an IC50 or EC50 that approximates it; ≥ and ≤ were set here for values at or beyond the usual limits of such assays; details: source organism: Mycobacterium tuberculosis
HLA-A*02:01 [1] = test: as above; details: source organism: Mycobacterium tuberculosis
HLA-A*03:01 = test: as above
HLA-A*11:01 = test: as above; details: source organism: Mycobacterium tuberculosis
HLA-A*69:01 = test: as above; details: source organism: Mycobacterium tuberculosis
HLA-B*15:01 [2] = test: as above; details: source organism: Mycobacterium tuberculosis
HLA-B*15:09 = test: as above; details: source organism: Mycobacterium tuberculosis str. Haarlem
HLA-B*18:01 = test: as above; details: source organism: Mycobacterium tuberculosis
HLA-B*27:05 = test: as above; details: source organism: Mycobacterium tuberculosis
HLA-B*39:01 = test: as above; details: source organism: Mycobacterium tuberculosis str. Haarlem
HLA-B*40:01 [3] = test: as above; details: source organism: Mycobacterium tuberculosis
HLA-B*46:01 [4] = test: as above; details: source organism: Mycobacterium tuberculosis
HLA-B*48:01 = test: as above; details: source organism: Mycobacterium tuberculosis
HLA-B*51:01 = test: as above; details: source organism: Mycobacterium tuberculosis
HLA-B*58:01 = test: as above; details: source organism: Mycobacterium tuberculosis
HLA-A*31:01 [5] = test: IEDB peptide-MHC binding, purified MHC/competitive/fluorescence; filed as Kd, often an IC50 or EC50 that approximates it; ≥ and ≤ were set here for values at or beyond the usual limits of such assays; details: source organism: Mycobacterium tuberculosis variant bovis BCG str. Pasteur 1173P2
HLA-B*08:01 [6] = test: as above; details: source organism: Mycobacterium tuberculosis variant bovis BCG str. Pasteur 1173P2
HLA-B*57:01 [7] = test: as above; details: source organism: Mycobacterium tuberculosis variant bovis BCG str. Pasteur 1173P2
HLA-A*02:01 [8] = test: IEDB peptide-MHC binding, purified MHC/competitive/radioactivity; ≥ and ≤ were set here for values at or beyond the usual limits of such assays
HLA-A*31:01 [9] = test: IEDB peptide-MHC binding, purified MHC/direct/fluorescence; filed as Kd, often an IC50 or EC50 that approximates it; ≥ and ≤ were set here for values at or beyond the usual limits of such assays; details: source organism: Mycobacterium tuberculosis
HLA-B*08:01 [10] = test: as above; details: source organism: Mycobacterium tuberculosis str. Haarlem
HLA-B*08:02 = test: as above; details: source organism: Mycobacterium tuberculosis str. Haarlem
HLA-B*15:17 = test: as above; details: source organism: Mycobacterium tuberculosis
HLA-B*38:01 = test: as above; details: source organism: Mycobacterium tuberculosis str. Haarlem
HLA-B*57:01 [11] = test: as above; details: source organism: Mycobacterium tuberculosis
HLA-A*02:01 [12] = test: IEDB peptide-MHC binding, purified MHC/competitive/radioactivity; filed as Kd, often an IC50 or EC50 that approximates it; ≥ and ≤ were set here for values at or beyond the usual limits of such assays; details: source organism: Homo sapiens
HLA-B*15:01 [13] = test: IEDB peptide-MHC binding, purified MHC/competitive/fluorescence; filed as Kd, often an IC50 or EC50 that approximates it; ≥ and ≤ were set here for values at or beyond the usual limits of such assays; details: source organism: Escherichia coli 536
HLA-B*40:01 [14] = test: as above; details: source organism: Escherichia coli 536
HLA-A*26:01 = test: IEDB peptide-MHC binding, purified MHC/direct/fluorescence; filed as Kd, often an IC50 or EC50 that approximates it; ≥ and ≤ were set here for values at or beyond the usual limits of such assays; details: source organism: Giardia lamblia ATCC 50803
HLA-A*26:02 = test: as above
HLA-C*12:03 = test: as above
HLA-B*46:01 [15] = test: IEDB peptide-MHC binding, purified MHC/competitive/fluorescence; filed as Kd, often an IC50 or EC50 that approximates it; ≥ and ≤ were set here for values at or beyond the usual limits of such assays; details: source organism: Giardia lamblia ATCC 50803
HLA-C*06:02 = test: IEDB peptide-MHC binding, purified MHC/direct/fluorescence; filed as Kd, often an IC50 or EC50 that approximates it; ≥ and ≤ were set here for values at or beyond the usual limits of such assays; details: source organism: Yellow fever virus
HLA-C*07:02 = test: as above; details: source organism: Yellow fever virus
HLA-C*14:02 = test: as above; details: source organism: Yellow fever virus
HLA-C*15:02 = test: as above; details: source organism: Yellow fever virus
[16] = source organism: Giardia lamblia ATCC 50803
[17] = source organism: Yellow fever virus

Q: Which results are given for RIRSERPAF?
A: Kd (HLA-A*01:01): ≥ 20 µM; Kd (HLA-A*02:01 [1]): ≥ 20 µM; Kd (HLA-A*03:01; source organism: Mycobacterium tuberculosis str. Haarlem): 381 nM; Kd (HLA-A*11:01): ≥ 20 µM; Kd (HLA-A*69:01): ≥ 20 µM; Kd (HLA-B*15:01 [2]): 27.8 nM; Kd (HLA-B*15:09): ≥ 20 µM; Kd (HLA-B*18:01): ≥ 20 µM; Kd (HLA-B*27:05): ≥ 20 µM; Kd (HLA-B*39:01): ≥ 20 µM; Kd (HLA-B*40:01 [3]): ≥ 20 µM; Kd (HLA-B*46:01 [4]): ≥ 20 µM; Kd (HLA-B*48:01): ≥ 20 µM; Kd (HLA-B*51:01): ≥ 20 µM; Kd (HLA-B*58:01): ≥ 20 µM; Kd (HLA-A*31:01 [5]): 982 nM; Kd (HLA-B*08:01 [6]): 2250 nM; Kd (HLA-B*57:01 [7]): 935 nM

Q: For RQASIELPSMAV, which IC50 (HLA-A*02:01 [8]; source organism: Homo sapiens) is on record?
A: 1770 nM

Q: With SLYNAVATL as the sequence, how does the IC50 (HLA-A*02:01 [8]; source organism: Human immunodeficiency virus 1) read?
A: 29 nM

Q: With VPRDRNGTF as the sequence, how does the Kd (HLA-A*01:01) read?
A: ≥ 20 µM

Q: And the Kd (HLA-A*02:01 [1])?
A: ≥ 20 µM

Q: And the Kd (HLA-A*03:01; source organism: Mycobacterium tuberculosis)?
A: ≥ 20000 nM

Q: What about the Kd (HLA-A*11:01) of the same sequence?
A: ≥ 20 µM

Q: And the Kd (HLA-A*31:01 [9])?
A: ≥ 20 µM

Q: And the Kd (HLA-A*69:01)?
A: ≥ 20 µM

Q: And the Kd (HLA-B*08:01 [10])?
A: 624 nM

Q: What about the Kd (HLA-B*08:02) of the same sequence?
A: 19 µM

Q: And the Kd (HLA-B*15:01 [2])?
A: ≥ 20000 nM

Q: And the Kd (HLA-B*15:09)?
A: ≥ 20 µM

Q: What about the Kd (HLA-B*15:17) of the same sequence?
A: ≥ 20 µM

Q: And the Kd (HLA-B*18:01)?
A: ≥ 20 µM

Q: And the Kd (HLA-B*27:05)?
A: ≥ 20 µM

Q: And the Kd (HLA-B*38:01)?
A: ≥ 20 µM

Q: What about the Kd (HLA-B*40:01 [3]) of the same sequence?
A: ≥ 20 µM

Q: And the Kd (HLA-B*46:01 [4])?
A: ≥ 20 µM

Q: And the Kd (HLA-B*48:01)?
A: ≥ 20 µM

Q: And the Kd (HLA-B*51:01)?
A: ≥ 20 µM

Q: And the Kd (HLA-B*57:01 [11])?
A: ≥ 20 µM

Q: What about the Kd (HLA-B*58:01) of the same sequence?
A: ≥ 20 µM

Q: Which IC50 (HLA-A*02:01 [8]; source organism: Homo sapiens) does the source give for VVLSWAPPV here?
A: 2.5 nM

Q: And the Kd (HLA-A*02:01 [12])?
A: 8.4 nM

Q: Which Kd (HLA-B*15:01 [13]) does the source give for YEDEDIIVI here?
A: 3.5 µM

Q: What about the Kd (HLA-B*40:01 [14]) of the same sequence?
A: 4.3 nM

Q: What does the source list for YSAEALLPY?
A: Kd (HLA-A*26:01): 9 nM; Kd (HLA-A*26:02; [16]): 3 nM; Kd (HLA-C*12:03; [16]): 13 nM; Kd (HLA-B*46:01 [15]): 55.1 nM

Q: What does the source list for YVIRDLAAM?
A: Kd (HLA-A*26:02; [17]): ≤ 1 nM; Kd (HLA-C*06:02): ≥ 20 µM; Kd (HLA-C*07:02): 590 nM; Kd (HLA-C*12:03; [17]): 23 nM; Kd (HLA-C*14:02): 79 nM; Kd (HLA-C*15:02): 274 nM
